Experimental data taken from US20140336116A1 (GLYTECH, published 2014).
Like-named read-outs stand apart in the source and are kept apart here. Each block holds one binder with its values, some of them ahead of it. Bridges are numbered along the chain shown (N, C = ends). Where no end group is shown, it is not given here. Side-chain parts run from the residue outwards. disialo(aminoethylamide) = disialo sugar chain with sialic acid carboxy groups modified by aminoethylamino groups; diGlcNAc = diGlcNAc sugar chain; disialo = disialo sugar chain; GlcNAc = N-acetylglucosamine; asialo = not defined here

Assays:
[1] = molecular target: T1, somatostatin receptor SSTR3 (Human, UniProt P32745 1-418); assay: cell-based or functional assay
T1 sequence (P32745 whole entry): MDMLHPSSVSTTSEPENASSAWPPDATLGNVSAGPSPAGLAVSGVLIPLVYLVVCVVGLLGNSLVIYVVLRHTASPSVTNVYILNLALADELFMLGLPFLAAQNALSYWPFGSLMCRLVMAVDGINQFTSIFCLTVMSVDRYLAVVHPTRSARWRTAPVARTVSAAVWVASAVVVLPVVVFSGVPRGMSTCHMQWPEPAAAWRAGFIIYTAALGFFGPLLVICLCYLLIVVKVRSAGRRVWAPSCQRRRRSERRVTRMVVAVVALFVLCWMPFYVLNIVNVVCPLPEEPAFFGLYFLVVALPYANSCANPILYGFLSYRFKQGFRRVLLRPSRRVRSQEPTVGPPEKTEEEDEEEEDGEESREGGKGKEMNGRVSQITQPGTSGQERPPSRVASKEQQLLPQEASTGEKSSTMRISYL

[2] = molecular target: T2, somatostatin receptor SSTR4 (Human, UniProt P31391 1-388); assay: cell-based or functional assay
T2 sequence (P31391 whole entry): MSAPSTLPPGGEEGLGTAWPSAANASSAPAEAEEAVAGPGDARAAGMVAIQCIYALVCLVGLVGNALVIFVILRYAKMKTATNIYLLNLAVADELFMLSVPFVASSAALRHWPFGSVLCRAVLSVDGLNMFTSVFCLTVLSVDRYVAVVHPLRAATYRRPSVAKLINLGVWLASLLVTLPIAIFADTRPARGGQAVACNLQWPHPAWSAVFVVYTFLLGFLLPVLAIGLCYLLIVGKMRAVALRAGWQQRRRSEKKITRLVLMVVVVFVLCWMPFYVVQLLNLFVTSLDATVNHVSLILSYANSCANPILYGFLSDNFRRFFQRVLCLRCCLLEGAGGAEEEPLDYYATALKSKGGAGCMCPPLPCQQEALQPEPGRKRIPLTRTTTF

[3] = molecular target: T3, somatostatin receptor SSTR1 (Human, UniProt P30872 1-391); assay: cell-based or functional assay
T3 sequence (P30872 whole entry): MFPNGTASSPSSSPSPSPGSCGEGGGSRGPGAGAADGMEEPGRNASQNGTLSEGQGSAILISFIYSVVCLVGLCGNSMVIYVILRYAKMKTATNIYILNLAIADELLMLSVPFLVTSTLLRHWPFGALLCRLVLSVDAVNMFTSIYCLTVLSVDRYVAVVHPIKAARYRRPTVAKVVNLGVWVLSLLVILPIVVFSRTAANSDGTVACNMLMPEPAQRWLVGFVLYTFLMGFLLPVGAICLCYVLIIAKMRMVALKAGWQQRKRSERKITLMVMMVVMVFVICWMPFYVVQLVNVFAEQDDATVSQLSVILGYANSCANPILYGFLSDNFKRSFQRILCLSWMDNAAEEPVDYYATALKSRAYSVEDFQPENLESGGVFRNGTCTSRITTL

[4] = molecular target: T4, somatostatin receptor SSTR2 (Human, UniProt P30874 1-369); assay: radioligand competition
T4 sequence (P30874 whole entry): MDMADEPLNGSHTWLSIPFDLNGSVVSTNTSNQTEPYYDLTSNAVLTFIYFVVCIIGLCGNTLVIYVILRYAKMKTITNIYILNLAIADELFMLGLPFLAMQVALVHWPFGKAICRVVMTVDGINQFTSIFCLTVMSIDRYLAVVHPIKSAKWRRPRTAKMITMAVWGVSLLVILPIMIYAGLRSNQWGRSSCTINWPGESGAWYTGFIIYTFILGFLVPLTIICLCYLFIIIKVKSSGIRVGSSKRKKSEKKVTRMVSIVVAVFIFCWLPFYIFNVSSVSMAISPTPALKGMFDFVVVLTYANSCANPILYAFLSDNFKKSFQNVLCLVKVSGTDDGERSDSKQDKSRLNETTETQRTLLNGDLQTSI

[5] = molecular target: T4, somatostatin receptor SSTR2; assay: cell-based or functional assay
[6] = molecular target: T2, somatostatin receptor SSTR4; assay: cell-based or functional assay; remark: listed apart in the source
[7] = molecular target: T4, somatostatin receptor SSTR2; assay: cell-based or functional assay; remark: listed apart in the source
[8] = molecular target: somatostatin receptor SSTR5 (Human, UniProt P35346 1-364); assay: cell-based or functional assay
Chain of somatostatin receptor SSTR5 (P35346 whole entry): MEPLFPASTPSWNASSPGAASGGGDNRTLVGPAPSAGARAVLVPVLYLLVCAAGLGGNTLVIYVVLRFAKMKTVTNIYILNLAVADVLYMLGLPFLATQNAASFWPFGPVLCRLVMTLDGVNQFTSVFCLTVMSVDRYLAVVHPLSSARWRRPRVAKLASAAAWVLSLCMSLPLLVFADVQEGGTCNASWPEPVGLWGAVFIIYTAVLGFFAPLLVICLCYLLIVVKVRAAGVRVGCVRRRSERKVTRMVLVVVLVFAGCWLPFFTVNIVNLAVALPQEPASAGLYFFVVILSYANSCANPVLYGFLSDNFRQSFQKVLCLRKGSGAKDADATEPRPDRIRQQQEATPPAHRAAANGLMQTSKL

[9] = molecular target: T3, somatostatin receptor SSTR1; assay: cell-based or functional assay; remark: listed apart in the source
[10] = molecular target: T1, somatostatin receptor SSTR3; assay: cell-based or functional assay; remark: listed apart in the source
[11] = molecular target: T2, somatostatin receptor SSTR4; assay: cell-based or functional assay; remark: listed apart in the source

B1: S1-3C(asialo)-SRIF28 (peptide)
peptide: CCCANSNPAMAPRERKAGCKNFFWKTFTSC
modifications: Ser1 replaced by three consecutive Cys each with an asialo sugar chain; disulfide Cys17-Cys28
IC50, cAMP production suppressing action [2]: 0.1 nM

Binder: C([Asn-disialo])ANSNPAMAPRERKAGCKNFFWKTFTSC (disulfide 17-28) [S1C(Asn(disialo))-SRIF28]
IC50, cAMP production suppressing action [3]: 2 nM

Binder: C(asialo)ANSNPAMAPRERKAGCKNFFWKTFTSC (disulfide 17-28; reading uncertain) [S1C(asialo)-SRIF28]
IC50 [4]: 0.2 nM

Binder: C(diGlcNAc)ANSNPAMAPRERKAGCKNFFWKTFTSC (disulfide 17-28) [S1C(diGlcNAc)-SRIF28]
IC50, cAMP production suppressing action [2]: 0.05 nM

Binder: C(GlcNAc)ANSNPAMAPRERKAGCKNFFWKTFTSC (disulfide 17-28) [S1C(GlcNAc)-SRIF28]
IC50, cAMP production suppressing action [5]: 0.04 nM

Binder: C(disialo)ANSNPAMAPRERKAGCKNFFWKTFTSC (disulfide 17-28) [S1C(disialo)-SRIF28]
IC50, cAMP production suppressing action [7]: 0.075 nM | IC50, cAMP production suppressing action [6]: 0.065 nM | Ki [4]: 0.269 nM

Binder: C(disialo(aminoethylamide))ANSNPAMAPRERKAGCKNFFWKTFTSC (disulfide 17-28) [S1C(disialo(aminoethylamide))-SRIF28]
IC50, cAMP production suppressing action [9]: 1 nM | IC50, cAMP production suppressing action [7]: 0.1 nM | IC50, cAMP production suppressing action [10]: 0.3 nM

More lines, now with the values ahead:

IC50, cAMP production suppressing action [1]: 0.1 nM
Binder: C(disialo sugar chain)KAGCKNFFWKTFTSC (disulfide 5-16) [C(disialo)-K-SRIF14]

IC50, cAMP production suppressing action [2]: 0.1 nM
Binder: CAGCKNFFWKTFTSC (disialo sugar chain on the Cys added before Ala15; disulfide Cys17-Cys28) [C(disialo)-SRIF14]

IC50, cAMP production suppressing action [6]: 0.05 nM
Binder: C(disialo sugar chain)RKAGCKNFFWKTFTSC (disulfide 6-17) [C(disialo)-R-K-SRIF14]

IC50, cAMP production suppressing action [5]: 0.08 nM
Binder: C(disialo)ANSNPAMAPRERKAGCKC(GlcNAc)FFWKTFTSC (disulfide 17-28) [S1C(disialo)•N19C(GlcNAc)-SRIF28]

IC50, cAMP production suppressing action [8]: 0.09 nM
Binder: C(disialo)ANSC(disialo)PAMAPRERKAGCKNFFWKTFTSC (disulfide 17-28) [S1C(disialo)•N5C(disialo)-SRIF28]

IC50, cAMP production suppressing action [8]: 0.09 nM
Binder: C(trisialo sugar chain)ANSNPAMAPRERKAGCKNFFWKTFTSC (disulfide 17-28) [S1C(trisialo)-SRIF28]

IC50, cAMP production suppressing action [11]: 1.6 nM
B2: 3C(disialo)-R-K-SRIF14 (peptide)
peptide: CCCRKAGCKNFFWKTFTSC
modifications: disialo sugar chain on each of the three N-terminal Cys of the added Cys-Cys-Cys-Arg-Lys-; disulfide Cys17-Cys28
